In data set [1] the target is Escherichia coli prolidase PepQ R370E (Escherichia coli) (UniProt P21165).
Data set [2] concerns the target Escherichia coli prolidase PepQ, wild type (Escherichia coli) (UniProt P21165).
For data set [3], the system named is C[C@H](N)C(=O)N1CCC[C@H]1C(=O)O. As to the kind of experiment: purified protein. The format is biochemical, Escherichia coli. The following applies: 50 mM Tris pH 8, 20 mM Mg(OAc)2, 25°C, 1 µM AlaDH and 2 mM NAD+ (coupling).
The subject of data set [4] is C[C@H](N)C(=O)N1CCC[C@H]1C(N)=O. The data set can be described thus: purified protein. The format is biochemical, Escherichia coli. The settings on record: 50 mM Tris pH 8, 20 mM Mg(OAc)2, 25°C, 1 µM AlaDH and 2 mM NAD+ (coupling).
Data set [5] concerns the molecule itself. As to the kind of experiment: crystal structure; PepQ 12 mg/ml in 50 mM Tris pH 7.4, 5 mM MgCl2, 5 mM DTT; hanging drop at 4°C, 20% PEG MME 5000, 0.1 M Bis-Tris pH 6.5; one dimer in the asymmetric unit.
Data set [6] deals with the molecule itself. The data set can be described thus: SEC; analytical gel filtration, Superose 6, PepQ 10 nM in 50 mM Tris pH 7.4, 50 mM KOAc, 10 mM Mg(OAc)2, 2 mM DTT, 0.4 mL/min, tryptophan fluorescence detection. Background: In gel filtration, larger molecules generally elute earlier.

We go through six molecules from paper PMC4213023, “Structural Basis of Substrate Selectivity of E. coli Prolidase” (PLoS ONE, 2014).

Take AlaPro-CONH2 substrate dipeptide: the Km (mM) of hydrolysis of the dipeptide, coupled to AlaDH/NAD+ oxidation of alanine, 25°C was found to be 4.7 mM in data set [1] and 6.6 mM in data set [2].
For AlaPro-COOH substrate dipeptide, the Km (mM) of hydrolysis of the dipeptide, coupled to AlaDH/NAD+ oxidation of alanine, 25°C is 127 mM in data set [1] and 1.2 mM in data set [2].
Usually Km stands for the concentration of substrate that gives half-maximal velocity. For orientation: kcat means the number of substrate molecules converted per active site and unit of time at saturation. For orientation: kcat/Km means the turnover number divided by the Michaelis constant. In the case of E. coli PepQ (Escherichia coli K-12), in data set [3], the Km came to 1.2 ± 0.1 mM, the catalytic constant (kcat) was 139 ± 2.5 s⁻¹ and the kcat/Km came out at 120000 M⁻¹ s⁻¹. Besides, in data set [4], the Michaelis constant (Km) came to 6.6 ± 0.5 mM, the catalytic constant (kcat) is 80.7 ± 19.7 s⁻¹ and the kcat/Km is 12000 M⁻¹ s⁻¹.
With “E. coli PepQ (Escherichia coli K-12; R370E)”, in data set [4], the Michaelis constant (Km) was determined as 4.7 ± 0.2 mM, the catalytic constant (kcat) is 1.1 ± 0.4 s⁻¹ and the specificity constant (kcat/Km) was found to be 230 M⁻¹ s⁻¹.

B1: Escherichia coli prolidase PepQ, wild type (enzyme, UniProt P21165 1-443, looked up)
chain: MESLASLYKNHIATLQERTRDALARFKLDALLIHSGELFNVFLDDHPYPFKVNPQFKAWVPVTQVPNCWLLVDGVNKPKLWFYLPVDYWHNVEPLPTSFWTEDVEVIALPKADGIGSLLPAARGNIGYIGPVPERALQLGIEASNINPKGVIDYLHYYRSFKTEYELACMREAQKMAVNGHRAAEEAFRSGMSEFDINIAYLTATGHRDTDVPYSNIVALNEHAAVLHYTKLDHQAPEEMRSFLLDAGAEYNGYAADLTRTWSAKSDNDYAQLVKDVNDEQLALIATMKAGVSYVDYHIQFHQRIAKLLRKHQIITDMSEEAMVENDLTGPFMPHGIGHPLGLQVHDVAGFMQDDSGTHLAAPAKYPYLRCTRILQPGMVLTIEPGIYFIESLLAPWREGQFSKHFNWQKIEALKPFGGIRIEDNVVIHENNVENMTRDLKLA
notes: E. coli PepQ (prolidase), gene PCR amplified from chromosomal E. coli DNA; Cloned NdeI/XhoI into pET21a; Two Mg(II) ions per active site in the crystal; also called E. coli PepQ; WT; source: E. coli BL21[DE3], pET21a, purified (fast-flow Q anion exchange, phenyl-sepharose, ammonium sulfate precipitation)
The term stoichiometry N denotes the number of molecules, sites or subunits per partner or assembly. Regarding B1, in data set [5], the “stoichiometry N” value is 2.

B2: Escherichia coli prolidase PepQ R370E (enzyme, UniProt P21165 1-443, looked up)
chain: MESLASLYKNHIATLQERTRDALARFKLDALLIHSGELFNVFLDDHPYPFKVNPQFKAWVPVTQVPNCWLLVDGVNKPKLWFYLPVDYWHNVEPLPTSFWTEDVEVIALPKADGIGSLLPAARGNIGYIGPVPERALQLGIEASNINPKGVIDYLHYYRSFKTEYELACMREAQKMAVNGHRAAEEAFRSGMSEFDINIAYLTATGHRDTDVPYSNIVALNEHAAVLHYTKLDHQAPEEMRSFLLDAGAEYNGYAADLTRTWSAKSDNDYAQLVKDVNDEQLALIATMKAGVSYVDYHIQFHQRIAKLLRKHQIITDMSEEAMVENDLTGPFMPHGIGHPLGLQVHDVAGFMQDDSGTHLAAPAKYPYLECTRILQPGMVLTIEPGIYFIESLLAPWREGQFSKHFNWQKIEALKPFGGIRIEDNVVIHENNVENMTRDLKLA
notes: E. coli PepQ (prolidase) with R370E, made by site-directed mutagenesis of the wild-type construct (domains of the parent printed as 1-159 and 160-443); Same construct as m1 apart from R370E; PDB 4QR8 is the wild-type parent; also called R370E PepQ; charge-reversed mutant of PepQ; source: E. coli BL21[DE3], pET21a, purified following the protocols used for the wild-type enzyme
Turning to B2, the binding result in data set [6] is recorded as “binds”.
